According to the supplement of paper PMC9170038:

Test system: K4 kissing-loop RNA reporter
Assay: apparent KD of K4 kissing-loop reporter; higher = weaker reporter binding
Settings: Eterna round: R107
Procedure: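 RNA-MaP round R107: designed RNA switches with theophylline, tryptophan, arginine or FMN aptamers are transcribed on-chip within common flanks. They are titrated with a labelled K4 kissing-loop RNA reporter in RNA-MaP buffer (100 mM Tris pH 7.5, 80 mM KCl, 4 mM MgCl2), without ligand or with the indicated ligand. Median apparent KD per design.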

[1] = input ligand: theophylline 20 uM
[2] = input ligand: tryptophan 2.4 mM
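Also: bound reporter read as fluorescence of individual clusters on recovered sequencing chips by microscopy, with normalized cluster intensities fitted with a binding model.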

| Sequence | apparent KD of K4 kissing-loop reporter (input ligand: FMN 200 uM) [nM] | apparent KD of K4 kissing-loop reporter (input ligand: arginine 13.2 mM) [nM] | apparent KD of K4 kissing-loop reporter (input ligand: none) [nM] | apparent KD of K4 kissing-loop reporter [1] [nM] | apparent KD of K4 kissing-loop reporter [2] [nM] |
| --- | --- | --- | --- | --- | --- |
| UCACGUGCCAGUGAUGUUGGCGUACGUGAUACCAGACGAAUAAAAGUCCCUUGGCAGCACAAAUAUGCCAAGUUAGAUGUAUGAU [Exclusion Theophylline A GF 2] | 125 | 122 | 121 | 116 | 116 |
| UGAUACCAGACUGAUACCAGCUAGUGAUGUUAGCUGAAACAGGAACAGGCAAAGCCUGCUAGCCCUUGGCAGCAGUCUGGUAUCU [TheoBX 11 #SwitchBubble #StaticStem] | 91.5 | 90.6 | 96.9 | 152 | 85.3 |
| UUAUACUCAUGUAAAGAACUAGUAACCGAAGGAGCGACAUAAAAGUCAGGUAGGUCGCGGAUUUCUCAGUGAUGUUGAGAGCAUU [JR_SSArginiA_Sub012] | 109 | 192 | 121 | 185 | 93.9 |
| UUUGUAUAGGGAAGGAGCGUGAAUGAUAAUGAAUAUAGUGAUGUUAUAUAUAAGAAAGAAUCACAGGUAGGUCGCCCGGAUGAGG [SSArgB.K] | 557 | 400 | 565 | 855 | 412 |
| GGCACUUUUGGUAGACACCAUCUACCUCUAUAGGAUAUGCCGAAAGGCAGAAGGAUAGACCUACAGAGUGAUGUUCUGCGUGCCU | 686 | 801 | 1230 | 946 | 849 |
| GGUAGCAUGGCGGCCGCCACUACCUAGUGAUGUUAGGCUGUGGACAUAGGAGCAAGACAAAUAUGUAGGACCGGGCCAUGCUACC | 126 | 92.8 | 111 | 124 | 131 |
| UUGACCAAAUUCCGGUGAUCAUCGCCGCCGCGAGGACCGGUACGGCCGCCACUCGUCCCUAUGCUCGGAGUAGUGAUGUUAUUCA [theeternabot_sameState_KL_Trp_A_43] | 557 | 197 | 529 | 280 | 574 |
| AUUUUGGUUUAGAGUGAUGUUCCUUGUAUUCGAGGACCGGUACGGCCGCCACUCGAAUAGAAAAGAAAAGAAAUGUGUGAUGUUU [BDazzled - #5 SS Tryptophan A] | 772 | 611 | 900 | 764 | 567 |
| UGAUACCAGACGGCCGCCACUCCUGCAGUCAAAGACUGCUAAAGGAAAUUCGUCCAGUGAUGUUGGAGGACCGGGUCUGGUAUCU [TrypBX 13 #SwitchBubble #Palindromic #StaticStem] | 1100 | 753 | 1070 | 810 | 480 |
| UUGUUUGGUUGAGAGGUUGGGCGAGAUGAUACCAGUAUAUAAGAAUACCCUUGGCAGCAUAAGAAAGAUAUAGUGAUGUUGUAUA [SSTheophA.M] | 520 | 379 | 645 | 672 | 457 |
| AAAAUAAAGGAGUGAUGUUCCAUAUGUGAUACCAGCCACGAAAGUGGCCCUUGGCAGCACUGCCAAGUGGACGAAAACGUCCACA [#OpenEnded 5 #StaticStem #K4Early] | 125 | 162 | 141 | 160 | 113 |
| AUAUGCAGGAGAAGGAGCGUCGUUGCAAGUGAUGUUUGCAAGCGAGCUUACUAUAUACGACGACAGGUAGGUCGCUCCUGCGUAA [Arg B Ex t2] | 68.8 | 61.7 | 64.8 | 58.1 | 67.2 |
| AGACUUCACCGAAGGAGCGACGUAGCCUAGUGAUGUUAGGCGCGAGAGAAAUCUCGUAUACGUCAGGUAGGUCGCGGUGAAGUCA [Omei KL Arginine B SS C v4] | 163 | 129 | 152 | 126 | 146 |
| AUGUAUGAAUUAGGAUAUCGUGAUCCAUGCAUAUAUAUGAUAAAUGGAUAUGUCGUAGUGAUGUUACGAGAAGGAGUGUGGAGUA [KL-XFMN-B1] | 62.6 | 71.5 | 64.3 | 93 | 45 |
| UUAGGAGUGGAAGGAUAUCCUGGUGUGGGUGAUGUUAGUGAUGUUGGAGGUGCAGUGAUGUUGCGCGGAGAAGGUCCGGUGUUGA [BDazzled - #5 - Exc. FMN B] | 280 | 299 | 372 | 435 | 263 |
| AGCCGAAAGGCGAGUGCUGUCGCUCCGGAAGGAGCGCAGGAAACUGCAGGUAGGUCGCCGGAGUGAUGUUUUGGUGCAGCACUCA [Omei KL Arginine A Exc B v7] | 163 | 218 | 129 | 132 | 134 |
| GCCGUAGAUGGAAGGAGCGUGAUAAGUGAAUUAUCCAGUGAUGUUGGAUCUUAGAUAGGAUCACAGGUAGGUCGCCAUCUACGGC | 244 | 181 | 217 | 297 | 192 |
| CGGAACGCAUCGGCCGCCACUUUUAUCUGCAGUGAUGUUGCAGUAUCCGAGCAAGGCUGUUGUGAAAGGACCGGGAUGGUCCGUU [Tibeberi] | 87.5 | 96.6 | 92.7 | 97.4 | 143 |
| AGUGAUAUAUGAGGAUAUGGGUUUGUUAAAGAGUUAGUUUUAGUGUUGUUUGGUUAGUGAUGUUAUUUAGAAGGCGUGAGUGAUG [foopmullin] | 97.2 | 82.5 | 76 | 115 | 72.9 |
| AGUGUGCAAAAGCACACUCAGAACAAGGACAAGGAUAUCUACUAAUAGAGAAGGUGUCCUUUCCUUAGUGAUGUUAAGGAUCUGA [Omei KL FMN A SS D v4] | 270 | 424 | 596 | 486 | 564 |
| AAAAUAAACCAGUGAUGUUGGUGUCUAGAUACCAGCGAUAAUAAUCGCCCUUGGCAGCUACGGACGUACAAAAUAAGUACGUCCU [MatMod 10 - Jieux - Same State - Theophylline A] | 543 | 375 | 454 | 485 | 460 |
| UGUAAGUGUCAGCGAGUGAUGUUCGACGAUACCAGACUCGAUAGAGUCCCUUGGCAGCGUAAUGCAUGCCAAACUGGCACAUACU [#SwitchBubble 11 #K4Early] | 453 | 438 | 560 | 528 | 434 |
